Measurements from patent US6673357B2, “Alkaloid glycoside for use as a medicament” (University of Southampton, priority 1996, dated 2004).

Tested on: ovalbumin-transfected EL4 (C57BL/6, H-2b thymoma) monoclonal murine cell line
Assay: Cytotoxicity assay: T lymphocyte-mediated 51Cr release with spleen cells from immunised mice
Assay type: cell-based
Details: means of triplicate determinations
Description: Cytotoxic activity mediated by T lymphocytes was measured using the ovalbumin-transfected EL4 (C57BL/6, H-2b thymoma) monoclonal murine cell line as a target. Untransfected EL4 cells were used as negative controls. Spleen cells (3×10^7) from normal or immunised mice primed 14 days earlier were incubated with 1.5×10^6 irradiated (200 Gy) 15-12 cells (gp160 transfectants) or 3T3 cells (which served as controls) for 5 days. Target cells (1×10^6) were labelled with 100 μCi ^51Cr. Target cells were washed three times in RPMI 1640 medium, diluted to 2×10^5 cells/ml, and 50μ (10^4) of target cells added to each microtitre well containing antigen or peptide (10 μM) and preincubated for 30 min. Effector cells were resuspended in complete mdium (CM) to yield a range of effector: target (E:T) ratios. Target cells (10^4) were then incubated at different E:T ratios in a total volume of 200 μl of 10% CM for an additional 4 h. Supernatants (100 μl) were collected and counted for ^51Cr release. Spontaneous release and maximal release values were determined by incubating target cells in 10% CM alone or 0.1% Triton X-100. Percent Cytotoxicity was calculated using the formula: […]
where ER is experimental release, SR is spontaneous release and […] release. The results shown are shown in Table 4 and represent the means of triplicate determinations.

B1: antigen only: antigen (ovalbumin, OVA) given without adjuvants (protein, UniProt P01012 2-386, looked up)
Ovalbumin: GSIGAASMEFCFDVFKELKVHHANENIFYCPIAIMSALAMVYLGAKDSTRTQINKVVRFDKLPGFGDSIEAQCGTSVNVHSSLRDILNQITKPNDVYSFSLASRLYAEERYPILPEYLQCVKELYRGGLEPINFQTAADQARELINSWVESQTNGIIRNVLQPSSVDSQTAMVLVNAIVFKGLWEKAFKDEDTQAMPFRVTEQESKPVQMMYQIGLFRVASMASEKMKILELPFASGTMSMLVLLPDEVSGLEQLESIINFEKLTEWTSSNVMEERKIKVYLPRMKMEEKYNLTSVLMAMGITDVFSSSANLSGISSAESLKISQAVHAAHAEINEAGREVVGSAEAGVDAASVSEEFRADHPFLFCIKHIATNAVLFFGRCVSP
- % of Cytotoxic lysis (E:T ratio 25:1): 19%
- % of Cytotoxic lysis (E:T ratio 50:1): 30%
- % of Cytotoxic lysis (E:T ratio 100:1): 45%
